Experimental data published in publication PMC3773880.

Assays:
[1] = target: low molecular weight gingipain R (RgpB) (Porphyromonas gingivalis) (UniProt P95493); assay: enzyme inhibition kinetics
[2] = target: high molecular weight gingipain R (HRgpA) (Porphyromonas gingivalis); assay: enzyme inhibition kinetics
[3] = target: high molecular weight gingipain R (HRgpA) (Porphyromonas gingivalis)

With PD_(RgpB) R102K (domain or fragment) the Ki [1] was 45.6 nM.
For PD_(RgpB) R66A (domain or fragment), the Ki [1] was 4.9 nM.
PD_(RgpB) R102A (domain or fragment) showed a Ki [1] of over 5000 nM.
PD_(RgpB) R159K (domain or fragment) was tested, and the Ki [1] was 7.7 nM.
PD_(RgpB) R102Q (domain or fragment) gave a Ki [1] of over 5000 nM.
Substance PD_(RgpB) R102E (domain or fragment) has a Ki [1] of over 5000 nM.
“PD_(RgpA), recombinant N-terminal prodomain of RgpA (from UniProt P28784 24-227) (domain or fragment)” gave a Ki [2] of 0.85 nM.
PD_(RgpB) R66K (domain or fragment) was tested, and the Ki [1] was 31 nM.
Work on “PD_(RgpB), recombinant N-terminal prodomain of RgpB (from UniProt P95493 25-229) (domain or fragment)” yielded a Ki [2] of 5.3 nM, an IC50 of inhibition of amidolytic activity (L-BAPNA), 10 nM enzyme [3] of 12.6 nM and an IC50 of inhibition of aminopeptidase activity (H-Arg-AMC), 10 nM enzyme [3] of 4.9 nM. The IC50 of inhibition of proteolytic activity (Azocoll), 10 nM enzyme [3] was 5.8 nM.
